Test results from article PMC10899635, “Q586B2 is a crucial virulence factor during the early stages of Trypanosoma brucei infection that is conserved amongst trypanosomatids” (Nature Communications, 2024).
Where two headings read alike, the source gives them in different places.

Tests used:
[1] = molecular target: T1, recombinant Q586B2 protein (Trypanosoma brucei brucei)
T1 chain: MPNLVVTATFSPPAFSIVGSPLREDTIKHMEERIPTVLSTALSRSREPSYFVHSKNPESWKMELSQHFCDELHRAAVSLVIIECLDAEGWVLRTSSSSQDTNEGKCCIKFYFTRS

native Q586B2 [2] = molecular target: T2, native Q586B2 (Trypanosoma brucei brucei AnTat1.1E and …, UniProt Q586B2)
[3] = molecular target: T3, homologous protein in T. cruzi (Trypanosoma cruzi (assayed strain not …, UniProt Q4D6Q6)); experiment: flow cytometry on cells; 5 µg HA-tagged Nb on 100 µl of 10^7/ml purified, fixed and permeabilized parasites, on ice 30 min; detected with Alexa Fluor 488 labeled anti-HA IgG; conditions: one partner purified
T3 construct: protein of T. cruzi homologous to Q586B2, detected by Nb39; also called Q4D6Q6; source: endogenous, T. cruzi parasites, fixed and permeabilized

native Q586B2 [4] = molecular target: T2, native Q586B2; experiment: ELISA; sandwich ELISA: Nb39 coated at 5 µg/ml in PBS; culture medium of in vitro cultured parasites or serum of infected mice (day 6 p.i., diluted 1/2), 2 h at 37 °C; detected with biotinylated Nb39 and streptavidin-HRP; conditions: one partner purified

Binder	binding result [1]	binding result (native Q586B2 [2])	binding result [3]	binding result (native Q586B2 [4])
Nb34 (VHH) VHH: QVQLQESGGGLVQPGGSLRLSCAASGFTFSNSPMNWVRQAPGKGLEWVSAINSGGGSTYYADSVKGRFTISRDNAKNTLYLQMNSLKPEDTAVYYCAKGGRTYYSGSYYSWGMDYWGKGTQVTVSS	binds	binds		
Nb32 (VHH) VHH: QVQLQESGGGLVQPGGSLRLSCAASGFTFSAYAMSWVRQAPGKGLEWVSTIDSGGGSTYYADSVKGRFTISRDNAKKTLYLHMNSLKPEDTAVYYCAKRGYSDYARHVWGQGTQVTVSS	binds	binds		
Nb36 (VHH) VHH: QVQLQESGGGLVQPGGSLRLSCAASGFAFSFYWMNWVRQAPGKGLEWVSAINSGGGSTYYADSVKGRFTISRDNAKNTLYLQMNSLKPEDTAVYYCAKGIVQRGEYYGMDYWGKGTQVTVSS	binds	binds		
Nb39 (VHH, nanobody from a llama immunized with recombinant Q586B2; A biotinylated Nb39 served as detecting agent in the sandwich ELISA; also called anti-Q586B2 Nb39; source: E. coli WK6, periplasmic extraction, purified (His-Trap IMAC, Superdex 75); not shown: HA, C-terminal, kept) VHH: QVQLQESGGGLVQPGGSLRLSCTASGSIFSGYAMGWYRQAPGKQRELVAGITSGGSTIYAGSVKGRFTISRDNAKNTVYLQMNSLKPEDTAVYYCKNGTYYSARDYWGQGTQVTVSS			binds	binds
Nb41 (VHH) VHH: QVQLQESGGGLVQAGGSLRLSCAASGRTFSSYAMGWFRQAPGKEREFIALISWIGGSTAYADSVKGRFTISRDNAKNTLYLQMNSLKPEDTAVYYCATDRIGRHRGPGTQVTVSS	binds	binds		
Nb53 (VHH) VHH: QVQLQESGGGSVQAGGSLRLSCSASGYTYSSHCTAWFRQAPGKEREALAAINSRSGTTYYADSVKGRFTISQDNTKNTAYLQMNSLKPEDTATYFCAALSFGCTGPLASLGQGTQVTVSS	binds	binds		
Nb58 (VHH) VHH: QVQLQESGGGLVQPGGSLRLSCAASGRSISSIYAMGWYRQAPGKQRELVARLTSGGSSNYADSVKGRFTITRDNAQNTVYLQMNSLKPEDTAVYYCNAEPSRWWLDDDYWGQGTQVTVSS	binds	binds		
